Assay results reported in patent US20160340395, “POLYPEPTIDE TAGGING FUSIONS AND METHODS” (REGENTS OF THE UNIVERSITY OF MINNESOTA, published 2016).

Assays:
[1] = molecular target: T1, mMobA minimal relaxase domain (Escherichia coli, UniProt P07112 SEQ:1-186); test: covalent adduct by SDS-PAGE; 1 uM protein, 5 uM DNA, 30 min 37 C; settings: tags: N-terminal His6-SUMO; label: Cy3
T1 chain: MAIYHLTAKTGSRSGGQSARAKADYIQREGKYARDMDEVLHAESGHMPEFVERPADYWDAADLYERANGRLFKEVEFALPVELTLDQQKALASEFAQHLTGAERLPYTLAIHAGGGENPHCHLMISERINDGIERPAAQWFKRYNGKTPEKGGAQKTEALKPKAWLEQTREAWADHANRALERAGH
Protocol: (§1) The HUH endonuclease-based protein tags described herein allow one to orthogonally label proteins in cells.
(§2) Unless otherwise noted, gel-shift assays were performed in HUH buffer; 50 mM Hepes pH 8, 50 mM NaCl, 1 mM MgCl₂ and 1 mM MnCl₂, incubated at 37° C. for 15 minutes unless otherwise noted, and quenched with 4× loading buffer. The reactions were analyzed by either electrophoresis on 4-20% polyacrylamide gels stained with Coomassie Blue or Bio-Rad Stain-Free gels. For comparison of covalent adduct formation of SNAP and DCV, 25 pmol of SNAP/DCV proteins were mixed with 100 pmol respective DNA-oligo in SNAP/HUH buffer. 4×SDS loading buffer was added at indicated times to quench. SNAP buffer: 50 mM Hepes pH8, 50 mM NaCl, and 5 mM β-mercaptoethanol. Specificity reactions of HUH-proteins with each target-oligo were performed in HUH buffer with 150 mM NaCl.

GeneA* HUH (Y131H) [2] = molecular target: T2, GeneA* HUH (Y131H) (PhiX174, UniProt P03631 SEQ:1-340); test: no cross-reactivity in mixture; settings: tags: N-terminal His6-SUMO; label: Cy5
T2 chain: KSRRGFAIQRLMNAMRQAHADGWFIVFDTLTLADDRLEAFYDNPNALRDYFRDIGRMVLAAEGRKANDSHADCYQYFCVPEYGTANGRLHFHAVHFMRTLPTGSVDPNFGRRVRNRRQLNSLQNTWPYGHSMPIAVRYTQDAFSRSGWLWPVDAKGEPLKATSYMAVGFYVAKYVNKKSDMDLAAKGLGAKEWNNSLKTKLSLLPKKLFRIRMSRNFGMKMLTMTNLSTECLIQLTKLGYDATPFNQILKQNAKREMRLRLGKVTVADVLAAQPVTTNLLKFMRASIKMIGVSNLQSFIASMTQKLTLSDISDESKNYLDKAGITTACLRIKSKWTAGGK

GeneA* HUH (Y131H) [3] = molecular target: T2, GeneA* HUH (Y131H); test: covalent adduct by SDS-PAGE; settings: tags: N-terminal His6-SUMO; label: FAM
Protocol: The reaction time is extremely fast. […] Product is observed after a reaction time of only five minutes.
as §2

RepB HUH domain = molecular target: T3, RepB HUH domain (Streptococcus agalactiae, UniProt P13921 SEQ:1-132); test: covalent adduct by SDS-PAGE; 1 uM protein, 5 uM DNA, 30 min 37 C; settings: tags: N-terminal His6-SUMO; label: FAM
T3 chain: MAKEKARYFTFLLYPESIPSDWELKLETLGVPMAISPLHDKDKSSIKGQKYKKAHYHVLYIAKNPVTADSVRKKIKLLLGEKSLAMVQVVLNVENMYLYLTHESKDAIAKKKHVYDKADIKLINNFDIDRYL
Protocol: as §1, §2

CCAGTTTCTCGAAGAGAAACCGGTAAATGCGCCCT (ssDNA) [mMobA target]: binds [1].

AAGTATTACCAG (ssDNA) [PCV2 ori target]: no binding (GeneA* HUH (Y131H) [2]).

TCGACAACTTGATATTAATAACACTATAGAC (ssDNA) [GeneA target]: binds (GeneA* HUH (Y131H) [3]).

TGCTTCCGTACTACGACCCCCCA (ssDNA) [RepB target]: binds (RepB HUH domain).
